Data taken from PMC7276532, “C-terminal eYFP fusion impairs Escherichia coli MinE function” (Open Biology, 2020).
Each block holds one binder with its values, some of them ahead of it.

What was measured:
[1] = molecular target: T1, Strep-MinD^D40AΔ10 (E. coli, UniProt P0AEZ3 1-260, D40A); test: pull-down; about 5 µM His-MinE or His-MinE-eYFP on MagneHis beads with 3 µM Strep-MinD^D40AΔ10, with ATP (1 mM), 5 mM MgCl2, 50 mM HEPES-KOH pH 7.25, 150 mM KCl, 10% glycerol, room temperature, 15 min; eluted with imidazole; details: both partners purified
T1 construct: MinD, E. coli, with D40A and lacking the last 10 amino acids; the reverse primer anneals 33 nucleotides upstream of the stop codon of minD; Cloned into the pET28a backbone without the region between NcoI and HindIII, so without the His and T7 tags; also called MinD^D40Δ10; source: E. coli Rosetta (DE3) pLysS, purified (Strep-Tactin cartridge, desalting); not shown: Strep-tag, N-terminal, kept
T1 sequence (looked up): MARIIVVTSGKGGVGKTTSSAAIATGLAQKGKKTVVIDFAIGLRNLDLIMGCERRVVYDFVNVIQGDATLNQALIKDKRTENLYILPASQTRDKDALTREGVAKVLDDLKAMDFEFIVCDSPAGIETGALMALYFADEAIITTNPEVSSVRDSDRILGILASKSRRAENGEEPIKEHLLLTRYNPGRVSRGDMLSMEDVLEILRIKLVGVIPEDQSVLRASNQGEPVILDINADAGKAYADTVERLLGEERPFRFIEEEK

[2] = molecular target: the molecule itself; test: SEC; Superdex 200, 13 µM protein injected, 50 mM HEPES-KOH pH 7.25, 150 mM KCl, 0.1 mM EDTA, 10% glycerol, room temperature; size judged against BSA (66 kDa) and carbonic anhydrase (29 kDa)

binding result [1]: binds
B1: His-MinE (natural protein, E. coli, UniProt P0A734 1-88, looked up)
chain: MALLDFFLSRKKNTANIAKERLQIIVAERRRSDAEPHYLPQLRKDILEVICKYVQIDPEMVTVQLEQKDGDISILELNVTLPEAEELK
notes: MinE, E. coli; the minE gene amplified from the MG1655 genome into pET28a (BamHI/HindIII); 88 amino acids; The same construct as m1, with the His-tag kept for the pull-down; source: E. coli Rosetta (DE3) pLysS, purified (IMAC nickel column, desalting); not shown: His6, N-terminal, kept

B2: MinE (untagged MinE; His-tag removed with thrombin) (natural protein, E. coli, UniProt P0A734 1-88, looked up)
chain: B1 chain
notes: MinE, E. coli; the minE gene amplified from the MG1655 genome into pET28a (BamHI/HindIII); 88 amino acids; Eluted as a tetramer in SEC; also called wild-type; source: E. coli Rosetta (DE3) pLysS, purified (IMAC nickel column, desalting), His-tag removed with thrombin; not shown: His6, N-terminal, cleaved
stoichiometry N [2]: 4
